{
  "source": "paper PMC7101349",
  "about": "(2020)",
  "binders": {"B1": {"name": "sAB BAK5 (Fab, V domains shown)", "VH": "EVQLVESGGGLVQPGGSLRLSCAASGFNVRSFSIHWVRQAPGKGLEWVAYISSSSGSTSYADSVKGRFTISADTSKNTAYLQMNSLRAEDTAVYYCARWGYWPGEPWWKAFDYWGQGTLVTVSS", "VL": "DIQMTQSPSSLSASVGDRVTITCRASQSVSSAVAWYQQKPGKAPKLLIYSASSLYSGVPSRFSGSRSGTDFTLTISSLQPEDFATYYCQQYLYYSLVTFGQGTKVEIK"}, "B2": {"name": "sAB BAG2 (Fab, V domains shown)", "VH": "B1 VH with R30V, S31D, I34L", "VL": "B1 VL"}, "B3": {"name": "BAG2 S36A (Fab, V domains shown)", "VH": "B1 VH with R30V, S31D, S33A, I34L", "VL": "B1 VL"}, "B4": {"name": "BAG2 F35A (Fab, V domains shown)", "VH": "B1 VH with R30V, S31D, F32A, I34L", "VL": "B1 VL"}, "B5": {"name": "sAB24 (Fab, V domains shown)", "VH": "B1 VH with V29F, R30S, F32S", "VL": "B1 VL"}},
  "experiment_in_all_cases": "SPR",
  "key": {"His10-BRIL [1]": {"target": "T1, His10-BRIL (UniProt P0ABE7 30-123)"}, "His10-BRIL [2]": {"target": "T1, His10-BRIL", "remark": "listed apart in the source"}, "His10-BRIL [3]": {"target": "T1, His10-BRIL", "remark": "listed apart in the source"}, "His10-BRIL [4]": {"target": "T1, His10-BRIL", "remark": "listed apart in the source"}},
  "note": "Substitutions are numbered along the chain they refer to. Names and notes keep the numbering of the source. Where two headings read alike, the source gives them in different places.",
  "data": [
    {"binder": "B1", "values": [
      {"measurement": "Kd", "setting": "His10-BRIL [1]", "value": 0.175, "unit": "nM"}
    ]},
    {"binder": "B2", "values": [
      {"measurement": "koff", "setting": "His10-BRIL [2]", "value": 0.00013, "unit": "s⁻¹"},
      {"measurement": "Kd", "setting": "His10-BRIL [1]", "value": 0.269, "unit": "nM"}
    ]},
    {"binder": "B3", "values": [
      {"measurement": "koff", "setting": "His10-BRIL [3]", "value": 0.00037, "unit": "s⁻¹"}
    ]},
    {"binder": "B4", "values": [
      {"measurement": "koff", "setting": "His10-BRIL [3]", "value": 0.00028, "unit": "s⁻¹"}
    ]},
    {"binder": "B5", "values": [
      {"measurement": "koff", "setting": "His10-BRIL [4]", "value": 0.0008, "unit": "s⁻¹"}
    ]}
  ]
}
